Reference: patent EP2254592B1

Biological target: purified folded MHC-complex (Example 57)
Assay: sandwich ELISA, W6/32 coated, HRP anti-β2m detection, OD450

For “W6/32 mouse-anti-HLA-ABC antibody (Dako M0736)”, which OD450 ratio to the negative control β2m is on record?
Its OD450 ratio to the negative control β2m is over 6 fold.
